From paper PMC7308715

Biological target: N-ribosyltransferase from Archaeoglobus veneficus SNP6 (AvNRT) (Archaeoglobus veneficus SNP6)
Assay: AUC; sedimentation velocity; 20 mM Tris-HCl, pH 8, 20 °C, 50,000 x g; profiles recorded at 292 nm; c(s) analysis with SEDFIT

## N-ribosyltransferase from Archaeoglobus veneficus SNP6 (AvNRT) (enzyme)
  stoichiometry N: 4
